Experimental findings from the supplement of paper PMC9428881 are described below.

A short description of the data set: background-corrected fluorescence of 3'-dye-labeled ssDNA relative to brightest sequence (3'-GCGCG) (fraction); higher = brighter dye fluorescence (less quenching). The essentials: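 Each of 1024 permuted pentamers was synthesized as single-stranded DNA on glass slides by light-directed phosphoramidite chemistry, with a 3' Cy3 or Cy5 dye alongside. Arrays were scanned at 532 or 635 nm before and after overnight deprotection with ethylenediamine/ethanol. Values average 10 features per array across at least 3 syntheses. The fluorescence readout, with unlabeled-oligo background removed, is given relative to the brightest sequence.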

± gives the standard error.

For the sequence “TTTTTGCATGCTGATGATGCTTTTTTTTTTTTTTTTACCA [ACCAT]”, the background-corrected fluorescence worked out at 0.43 ± 0.017 (dye: Cy3 (3' terminal)) and 0.364 ± 0.02 (dye: Cy5 (3' terminal)).

Take “TTTTTGCATGCTGATGCGCATTTTTTTTTTTTTTTTACAT”: the background-corrected fluorescence is, setting by setting: (dye: Cy3 (3' terminal)) 0.489 ± 0.027; (dye: Cy5 (3' terminal)) 0.382 ± 0.025.

For “TTTTTGCATGCTGATGCTCATTTTTTTTTTTTTTTTACAG [GACAT]”, the background-corrected fluorescence by setting is: (dye: Cy3 (3' terminal)) 0.499 ± 0.036; (dye: Cy5 (3' terminal)) 0.413 ± 0.03.

As to “TTTTTGCATGCTGATGCTGATTTTTTTTTTTTTTTTACAC [CACAT]”, the background-corrected fluorescence is, setting by setting: (dye: Cy3 (3' terminal)) 0.425 ± 0.017; (dye: Cy5 (3' terminal)) 0.312 ± 0.014.

In turn, “TTTTTGCATGCTGATGCTGCTTTTTTTTTTTTTTTTACAA [AACAT]” came in with a background-corrected fluorescence (dye: Cy3 (3' terminal)) of 0.538 ± 0.025 and a background-corrected fluorescence (dye: Cy5 (3' terminal)) of 0.433 ± 0.059.

As to “TTTTTGCATGCTGCGCAGCATTTTTTTTTTTTTTTTAATT”, the background-corrected fluorescence was determined as 0.549 ± 0.014 (dye: Cy3 (3' terminal)) and 0.377 ± 0.027 (dye: Cy5 (3' terminal)).

For “TTTTTGCATGCTGCGCATCATTTTTTTTTTTTTTTTAATG [GTAAT]”, the background-corrected fluorescence is, setting by setting: (dye: Cy3 (3' terminal)) 0.513 ± 0.02; (dye: Cy5 (3' terminal)) 0.363 ± 0.023.

Consider “TTTTTGCATGCTGCGCATGATTTTTTTTTTTTTTTTAATC [CTAAT]”, for which the background-corrected fluorescence is, setting by setting: (dye: Cy3 (3' terminal)) 0.458 ± 0.036; (dye: Cy5 (3' terminal)) 0.303 ± 0.015.

In the case of “TTTTTGCATGCTGCGCATGCTTTTTTTTTTTTTTTTAATA [ATAAT]”, the background-corrected fluorescence runs as follows: (dye: Cy3 (3' terminal)) 0.56 ± 0.0062; (dye: Cy5 (3' terminal)) 0.458 ± 0.047.

Turning to “TTTTTGCATGCTGCTCAGCATTTTTTTTTTTTTTTTAAGT [TGAAT]”, the background-corrected fluorescence by setting is: (dye: Cy3 (3' terminal)) 0.663 ± 0.018; (dye: Cy5 (3' terminal)) 0.493 ± 0.031.

Consider “TTTTTGCATGCTGCTCATCATTTTTTTTTTTTTTTTAAGG [GGAAT]”, for which the background-corrected fluorescence by setting is: (dye: Cy3 (3' terminal)) 0.627 ± 0.024; (dye: Cy5 (3' terminal)) 0.518 ± 0.045.

“TTTTTGCATGCTGCTCATGATTTTTTTTTTTTTTTTAAGC [CGAAT]”: the background-corrected fluorescence amounted to 0.524 ± 0.023 (dye: Cy3 (3' terminal)) and 0.417 ± 0.029 (dye: Cy5 (3' terminal)).

On to “TTTTTGCATGCTGCTCATGCTTTTTTTTTTTTTTTTAAGA [AGAAT]”, for which the background-corrected fluorescence is, setting by setting: (dye: Cy3 (3' terminal)) 0.649 ± 0.011; (dye: Cy5 (3' terminal)) 0.589 ± 0.024.

In the case of “TTTTTGCATGCTGCTGAGCATTTTTTTTTTTTTTTTAACT [TCAAT]”, the background-corrected fluorescence came out at 0.492 ± 0.02 (dye: Cy3 (3' terminal)) and 0.353 ± 0.027 (dye: Cy5 (3' terminal)).

As to “TTTTTGCATGCTGCTGATCATTTTTTTTTTTTTTTTAACG [GCAAT]”, the background-corrected fluorescence (dye: Cy3 (3' terminal)) turned out to be 0.51 ± 0.034 and the background-corrected fluorescence (dye: Cy5 (3' terminal)) was determined as 0.426 ± 0.037.

“TTTTTGCATGCTGCTGATGATTTTTTTTTTTTTTTTAACC [CCAAT]”: the background-corrected fluorescence is, setting by setting: (dye: Cy3 (3' terminal)) 0.396 ± 0.025; (dye: Cy5 (3' terminal)) 0.278 ± 0.021.

On to “TTTTTGCATGCTGCTGATGCTTTTTTTTTTTTTTTTAACA [ACAAT]”, for which the background-corrected fluorescence is, setting by setting: (dye: Cy3 (3' terminal)) 0.557 ± 0.022; (dye: Cy5 (3' terminal)) 0.405 ± 0.033.

The sequence “TTTTTGCATGCTGCTGCGCATTTTTTTTTTTTTTTTAAAT” displayed a background-corrected fluorescence (dye: Cy3 (3' terminal)) of 0.612 ± 0.027 and a background-corrected fluorescence (dye: Cy5 (3' terminal)) of 0.454 ± 0.038.

In the case of “TTTTTGCATGCTGCTGCTCATTTTTTTTTTTTTTTTAAAG [GAAAT]”, the background-corrected fluorescence runs as follows: (dye: Cy3 (3' terminal)) 0.552 ± 0.036; (dye: Cy5 (3' terminal)) 0.397 ± 0.021.

Turning to “TTTTTGCATGCTGCTGCTGATTTTTTTTTTTTTTTTAAAC [CAAAT]”, the background-corrected fluorescence came to 0.447 ± 0.028 (dye: Cy3 (3' terminal)) and 0.336 ± 0.028 (dye: Cy5 (3' terminal)).

For “TTTTTGCATGCTGCTGCTGCTTTTTTTTTTTTTTTTAAAA [AAAAT]”, the background-corrected fluorescence stood at 0.631 ± 0.013 (dye: Cy3 (3' terminal)) and 0.52 ± 0.028 (dye: Cy5 (3' terminal)).

Take “TTTTTTCAGCAGCAGCAGCATTTTTTTTTTTTTTTGTTTT”: the background-corrected fluorescence runs as follows: (dye: Cy3 (3' terminal)) 0.531 ± 0.019; (dye: Cy5 (3' terminal)) 0.368 ± 0.021.

On to “TTTTTTCAGCAGCAGCATCATTTTTTTTTTTTTTTGTTTG”, for which the background-corrected fluorescence runs as follows: (dye: Cy3 (3' terminal)) 0.517 ± 0.028; (dye: Cy5 (3' terminal)) 0.33 ± 0.029.

For the sequence “TTTTTTCAGCAGCAGCATGATTTTTTTTTTTTTTTGTTTC [CTTTG]”, the background-corrected fluorescence reads like this: (dye: Cy3 (3' terminal)) 0.409 ± 0.024; (dye: Cy5 (3' terminal)) 0.306 ± 0.036.
